Measurements published in the supplement of paper PMC10065799, “High-throughput profiling of sequence recognition by tyrosine kinases and SH2 domains using bacterial peptide display” (eLife, 2023).

target: EPHB2 (UniProt P29323); assay: phosphorylation enrichment, bacterial display (enrichment ratio); higher = better substrate or ligand; peptides without Tyr show the background
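Also: 11-residue human phosphosite peptides and single-mutation variants displayed on the E. coli surface, counted by deep sequencing, each peptide's frequency after selection divided by its frequency in the unselected input library; frequency after pTyr selection over input frequency; kinase dosed for 20-30% of maximal phosphorylation in three min.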

EPHB2, sequence (P29323 whole entry, looked up): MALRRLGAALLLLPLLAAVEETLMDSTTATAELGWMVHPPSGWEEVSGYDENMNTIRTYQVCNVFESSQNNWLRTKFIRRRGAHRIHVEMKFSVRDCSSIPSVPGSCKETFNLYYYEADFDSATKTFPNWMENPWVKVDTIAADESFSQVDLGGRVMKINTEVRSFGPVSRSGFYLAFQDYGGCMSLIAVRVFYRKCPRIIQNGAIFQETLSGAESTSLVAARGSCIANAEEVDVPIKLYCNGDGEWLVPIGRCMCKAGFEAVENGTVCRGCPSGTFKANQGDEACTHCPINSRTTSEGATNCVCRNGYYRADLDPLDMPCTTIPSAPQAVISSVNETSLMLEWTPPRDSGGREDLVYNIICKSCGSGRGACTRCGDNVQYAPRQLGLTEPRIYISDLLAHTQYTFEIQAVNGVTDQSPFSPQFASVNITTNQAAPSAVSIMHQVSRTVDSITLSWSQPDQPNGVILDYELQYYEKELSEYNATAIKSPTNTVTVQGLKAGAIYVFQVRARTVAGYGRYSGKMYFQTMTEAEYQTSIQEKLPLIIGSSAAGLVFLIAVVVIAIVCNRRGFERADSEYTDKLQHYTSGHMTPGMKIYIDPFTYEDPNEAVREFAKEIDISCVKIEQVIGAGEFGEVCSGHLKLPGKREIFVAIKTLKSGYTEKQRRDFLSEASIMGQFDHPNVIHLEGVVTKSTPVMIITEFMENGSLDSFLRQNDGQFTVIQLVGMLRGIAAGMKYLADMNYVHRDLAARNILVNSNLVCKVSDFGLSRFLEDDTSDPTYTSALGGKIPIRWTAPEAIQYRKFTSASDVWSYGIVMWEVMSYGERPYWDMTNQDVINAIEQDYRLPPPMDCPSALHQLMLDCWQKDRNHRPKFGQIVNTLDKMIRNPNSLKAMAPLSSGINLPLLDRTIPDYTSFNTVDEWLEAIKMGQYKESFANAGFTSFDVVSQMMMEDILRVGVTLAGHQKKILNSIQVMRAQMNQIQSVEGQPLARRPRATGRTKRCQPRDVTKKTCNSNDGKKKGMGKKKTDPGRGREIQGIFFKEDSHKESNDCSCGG

Row | Sequence | phosphorylation enrichment
1 | PPGRSYSPFDF [TNS1_Y793_YF] | 0.599
2 | CTTIHYNFICN [TP53_Y234_M237I_YF] | 0.59
3 | INSLKYAFNVS [EIF2B5_Y583_I587V_YF] | 0.43
4 | PFDAEYGGGGG [AKR1B10_Y316_N313D] | 1.48
5 | QHVPDYRQNVF [PCDHGA1_Y890_YF] | 0.597
6 | DFFDLYGGEKF [PTPN11_Y66_YF] | 0.525
7 | VGTKRYMALEV [ACVRL1_Y375_P378L] | 0.451
8 | NLFIEYPTGSG [IRF2BPL_Y423_K418N] | 0.548
9 | MPIPMYDGSQA [CARMIL1_Y637_A639G] | 0.634
10 | AIFWRYSKFFD [SH3PXD2B_Y45_R43W_YF] | 0.52
11 | RGERPYGGGGG [FUS_Y526_R522G] | 0.418
12 | LSVEIHDRREF [ITGB7_Y753_Y753H_YF] | 1.1
13 | NRDNTYNRVSE [FGA_Y127] | 0.407
14 | EGQKIYIDDNN [PIP4K2A_Y246] | 0.539
15 | GGKYSYLKVGH [GRM3_Y480] | 0.394
16 | PTATSYNPNLA [GABRA1_Y375_T376N] | 0.607
17 | RAILLYEFVGK [NATD1_Y45_V42I_YF] | 65.8

Row | Sequence | phosphorylation enrichment
18 | DAASNYARGHF [TUBA3E_Y103_YF] | 0.514
19 | RKTAKYLLKGE [CDH5_Y82_N79T] | 0.54
20 | FVSLIYTNFEA [GSTP1_Y109_I105V_YF] | 0.91
21 | AKFPFYEKNKK [FOXL2_Y91] | 0.467
22 | FYRNVYHLASV [RBL1_Y796_K794N] | 0.587
23 | EWLRRHLENGK [HLA-A_Y195_Y195H] | 0.481
24 | SNMPSYSGHFT [GRIN2A_Y1224_T1223S] | 0.408
25 | AAETTYDKILK [GDNF_Y156] | 0.496
26 | STTSDYQWDVS [MTDH_Y364] | 0.615
27 | CTTIHYDYMCN [TP53_Y234_N235D] | 0.723
28 | LQTFRYHGHSM [PDHA1_Y289_YF] | 0.61
29 | TSGVVYKARNK [CDK2_Y19_Y15S] | 0.358
30 | ADKAAYLQSMN [MYH2_Y389_L393M] | 0.419
31 | SVTCTYSPALI [TP53_Y126_N131I] | 0.779
32 | VGTKRYMAPDV [ACVRL1_Y375_E379D] | 0.402
33 | YDCGMYSHLQG [LGR4_Y848] | 1.29

target: Fyn (UniProt P06241); assay: as above
Sequence (P06241 whole entry, looked up): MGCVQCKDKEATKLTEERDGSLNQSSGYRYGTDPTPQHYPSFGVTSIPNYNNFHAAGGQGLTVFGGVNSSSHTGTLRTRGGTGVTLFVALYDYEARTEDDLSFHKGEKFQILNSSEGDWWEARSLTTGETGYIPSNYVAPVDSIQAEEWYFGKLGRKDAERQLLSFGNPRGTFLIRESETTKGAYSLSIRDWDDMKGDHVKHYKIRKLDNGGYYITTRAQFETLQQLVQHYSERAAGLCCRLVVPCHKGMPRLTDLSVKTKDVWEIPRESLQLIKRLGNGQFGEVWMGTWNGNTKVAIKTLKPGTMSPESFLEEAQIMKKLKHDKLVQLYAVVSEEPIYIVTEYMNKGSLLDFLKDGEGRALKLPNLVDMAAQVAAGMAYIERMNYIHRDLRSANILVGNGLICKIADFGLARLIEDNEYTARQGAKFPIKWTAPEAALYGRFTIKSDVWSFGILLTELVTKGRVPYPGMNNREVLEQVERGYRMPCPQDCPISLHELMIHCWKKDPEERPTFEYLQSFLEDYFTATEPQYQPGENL

Row | Sequence | phosphorylation enrichment
34 | PPGRSYSPFDF [TNS1_Y793_YF] | 0.635
35 | CTTIHYNFICN [TP53_Y234_M237I_YF] | 0.464
36 | INSLKYAFNVS [EIF2B5_Y583_I587V_YF] | 0.478
37 | PFDAEYGGGGG [AKR1B10_Y316_N313D] | 1.13
38 | QHVPDYRQNVF [PCDHGA1_Y890_YF] | 0.602
39 | DFFDLYGGEKF [PTPN11_Y66_YF] | 2.12
40 | VGTKRYMALEV [ACVRL1_Y375_P378L] | 0.429
41 | NLFIEYPTGSG [IRF2BPL_Y423_K418N] | 0.568
42 | MPIPMYDGSQA [CARMIL1_Y637_A639G] | 0.52
43 | AIFWRYSKFFD [SH3PXD2B_Y45_R43W_YF] | 0.444
44 | RGERPYGGGGG [FUS_Y526_R522G] | 0.474
45 | LSVEIHDRREF [ITGB7_Y753_Y753H_YF] | 0.65
46 | NRDNTYNRVSE [FGA_Y127] | 0.425
47 | EGQKIYIDDNN [PIP4K2A_Y246] | 0.568
48 | GGKYSYLKVGH [GRM3_Y480] | 0.497
49 | PTATSYNPNLA [GABRA1_Y375_T376N] | 0.748
50 | RAILLYEFVGK [NATD1_Y45_V42I_YF] | 12.1

Row | Sequence | phosphorylation enrichment
51 | DAASNYARGHF [TUBA3E_Y103_YF] | 0.398
52 | RKTAKYLLKGE [CDH5_Y82_N79T] | 0.598
53 | FVSLIYTNFEA [GSTP1_Y109_I105V_YF] | 5.96
54 | AKFPFYEKNKK [FOXL2_Y91] | 0.405
55 | FYRNVYHLASV [RBL1_Y796_K794N] | 1.93
56 | EWLRRHLENGK [HLA-A_Y195_Y195H] | 0.302
57 | SNMPSYSGHFT [GRIN2A_Y1224_T1223S] | 0.465
58 | AAETTYDKILK [GDNF_Y156] | 0.596
59 | STTSDYQWDVS [MTDH_Y364] | 0.54
60 | CTTIHYDYMCN [TP53_Y234_N235D] | 0.657
61 | LQTFRYHGHSM [PDHA1_Y289_YF] | 0.948
62 | TSGVVYKARNK [CDK2_Y19_Y15S] | 0.359
63 | ADKAAYLQSMN [MYH2_Y389_L393M] | 0.415
64 | SVTCTYSPALI [TP53_Y126_N131I] | 0.646
65 | VGTKRYMAPDV [ACVRL1_Y375_E379D] | 0.306
66 | YDCGMYSHLQG [LGR4_Y848] | 2.36

target: FGFR3 (UniProt P22607); assay: as above
Sequence (P22607 whole entry, looked up): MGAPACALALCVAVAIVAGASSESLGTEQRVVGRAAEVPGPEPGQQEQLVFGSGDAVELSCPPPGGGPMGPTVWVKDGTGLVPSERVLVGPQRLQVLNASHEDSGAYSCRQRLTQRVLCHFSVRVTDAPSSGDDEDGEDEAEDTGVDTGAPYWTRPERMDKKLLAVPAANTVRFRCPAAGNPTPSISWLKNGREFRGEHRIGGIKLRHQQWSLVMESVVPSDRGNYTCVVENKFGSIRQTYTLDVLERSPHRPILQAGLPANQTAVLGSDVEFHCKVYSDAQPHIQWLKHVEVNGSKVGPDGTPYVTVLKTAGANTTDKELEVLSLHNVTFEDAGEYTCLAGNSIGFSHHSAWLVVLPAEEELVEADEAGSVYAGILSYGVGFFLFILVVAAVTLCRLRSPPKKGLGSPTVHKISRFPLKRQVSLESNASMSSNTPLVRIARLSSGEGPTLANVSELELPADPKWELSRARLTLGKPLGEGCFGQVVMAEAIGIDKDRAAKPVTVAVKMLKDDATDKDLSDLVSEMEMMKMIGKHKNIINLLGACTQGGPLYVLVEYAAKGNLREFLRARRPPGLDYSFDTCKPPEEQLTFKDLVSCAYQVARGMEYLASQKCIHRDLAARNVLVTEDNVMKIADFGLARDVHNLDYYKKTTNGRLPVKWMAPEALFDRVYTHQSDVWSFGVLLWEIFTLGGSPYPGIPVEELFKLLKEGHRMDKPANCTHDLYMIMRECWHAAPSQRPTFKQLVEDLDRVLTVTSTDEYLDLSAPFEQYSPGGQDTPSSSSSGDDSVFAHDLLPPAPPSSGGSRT

Row | Sequence | phosphorylation enrichment
67 | PPGRSYSPFDF [TNS1_Y793_YF] | 0.75
68 | CTTIHYNFICN [TP53_Y234_M237I_YF] | 0.775
69 | INSLKYAFNVS [EIF2B5_Y583_I587V_YF] | 0.584
70 | PFDAEYGGGGG [AKR1B10_Y316_N313D] | 1.09
71 | QHVPDYRQNVF [PCDHGA1_Y890_YF] | 0.704
72 | DFFDLYGGEKF [PTPN11_Y66_YF] | 0.629
73 | VGTKRYMALEV [ACVRL1_Y375_P378L] | 0.541
74 | NLFIEYPTGSG [IRF2BPL_Y423_K418N] | 0.7
75 | MPIPMYDGSQA [CARMIL1_Y637_A639G] | 0.532
76 | AIFWRYSKFFD [SH3PXD2B_Y45_R43W_YF] | 0.805
77 | RGERPYGGGGG [FUS_Y526_R522G] | 0.377
78 | LSVEIHDRREF [ITGB7_Y753_Y753H_YF] | 1.17
79 | NRDNTYNRVSE [FGA_Y127] | 0.469
80 | EGQKIYIDDNN [PIP4K2A_Y246] | 0.667
81 | GGKYSYLKVGH [GRM3_Y480] | 0.536
82 | PTATSYNPNLA [GABRA1_Y375_T376N] | 0.878
83 | RAILLYEFVGK [NATD1_Y45_V42I_YF] | 5.57

Row | Sequence | phosphorylation enrichment
84 | DAASNYARGHF [TUBA3E_Y103_YF] | 0.526
85 | RKTAKYLLKGE [CDH5_Y82_N79T] | 0.704
86 | FVSLIYTNFEA [GSTP1_Y109_I105V_YF] | 1.05
87 | AKFPFYEKNKK [FOXL2_Y91] | 0.533
88 | FYRNVYHLASV [RBL1_Y796_K794N] | 0.556
89 | EWLRRHLENGK [HLA-A_Y195_Y195H] | 0.552
90 | SNMPSYSGHFT [GRIN2A_Y1224_T1223S] | 0.421
91 | AAETTYDKILK [GDNF_Y156] | 0.725
92 | STTSDYQWDVS [MTDH_Y364] | 0.865
93 | CTTIHYDYMCN [TP53_Y234_N235D] | 0.631
94 | LQTFRYHGHSM [PDHA1_Y289_YF] | 0.999
95 | TSGVVYKARNK [CDK2_Y19_Y15S] | 0.447
96 | ADKAAYLQSMN [MYH2_Y389_L393M] | 0.654
97 | SVTCTYSPALI [TP53_Y126_N131I] | 0.954
98 | VGTKRYMAPDV [ACVRL1_Y375_E379D] | 0.412
99 | YDCGMYSHLQG [LGR4_Y848] | 1

target: EPHB1 (UniProt P54762); assay: as above
Sequence (P54762 whole entry, looked up): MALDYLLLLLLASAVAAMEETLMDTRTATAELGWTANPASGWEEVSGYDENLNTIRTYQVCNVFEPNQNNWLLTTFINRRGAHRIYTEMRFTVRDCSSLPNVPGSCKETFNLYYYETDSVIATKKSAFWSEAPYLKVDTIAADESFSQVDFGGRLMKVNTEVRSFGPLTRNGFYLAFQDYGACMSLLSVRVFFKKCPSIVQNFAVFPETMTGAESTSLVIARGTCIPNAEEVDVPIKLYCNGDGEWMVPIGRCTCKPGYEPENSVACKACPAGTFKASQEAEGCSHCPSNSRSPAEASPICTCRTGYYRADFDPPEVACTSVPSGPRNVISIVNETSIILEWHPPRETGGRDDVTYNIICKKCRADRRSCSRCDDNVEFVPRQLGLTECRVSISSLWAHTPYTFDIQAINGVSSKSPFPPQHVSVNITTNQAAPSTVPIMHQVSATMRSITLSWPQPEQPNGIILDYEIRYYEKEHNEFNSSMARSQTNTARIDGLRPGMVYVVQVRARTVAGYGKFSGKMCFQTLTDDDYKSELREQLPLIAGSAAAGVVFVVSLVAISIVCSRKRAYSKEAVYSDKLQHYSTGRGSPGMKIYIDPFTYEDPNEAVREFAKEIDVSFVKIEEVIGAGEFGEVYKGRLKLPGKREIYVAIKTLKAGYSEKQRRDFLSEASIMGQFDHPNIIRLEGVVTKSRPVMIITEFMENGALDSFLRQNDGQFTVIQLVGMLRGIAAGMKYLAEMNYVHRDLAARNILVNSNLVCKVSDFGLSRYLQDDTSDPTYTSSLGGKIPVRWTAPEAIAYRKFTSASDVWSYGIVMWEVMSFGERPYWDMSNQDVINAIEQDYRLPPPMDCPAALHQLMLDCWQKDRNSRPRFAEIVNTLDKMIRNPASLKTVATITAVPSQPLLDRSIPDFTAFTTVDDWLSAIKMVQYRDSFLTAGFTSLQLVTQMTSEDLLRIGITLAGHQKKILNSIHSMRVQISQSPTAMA

Row | Sequence | phosphorylation enrichment
100 | PPGRSYSPFDF [TNS1_Y793_YF] | 0.4
101 | CTTIHYNFICN [TP53_Y234_M237I_YF] | 0.554
102 | INSLKYAFNVS [EIF2B5_Y583_I587V_YF] | 0.443
103 | PFDAEYGGGGG [AKR1B10_Y316_N313D] | 0.843
104 | QHVPDYRQNVF [PCDHGA1_Y890_YF] | 0.583
105 | DFFDLYGGEKF [PTPN11_Y66_YF] | 0.569
106 | VGTKRYMALEV [ACVRL1_Y375_P378L] | 0.549
107 | NLFIEYPTGSG [IRF2BPL_Y423_K418N] | 0.504
108 | MPIPMYDGSQA [CARMIL1_Y637_A639G] | 1.1
109 | AIFWRYSKFFD [SH3PXD2B_Y45_R43W_YF] | 0.493
110 | RGERPYGGGGG [FUS_Y526_R522G] | 0.185
111 | LSVEIHDRREF [ITGB7_Y753_Y753H_YF] | 0.88
112 | NRDNTYNRVSE [FGA_Y127] | 0.472
113 | EGQKIYIDDNN [PIP4K2A_Y246] | 0.586
114 | GGKYSYLKVGH [GRM3_Y480] | 0.344
115 | PTATSYNPNLA [GABRA1_Y375_T376N] | 0.808
116 | RAILLYEFVGK [NATD1_Y45_V42I_YF] | 49.4

Row | Sequence | phosphorylation enrichment
117 | DAASNYARGHF [TUBA3E_Y103_YF] | 0.502
118 | RKTAKYLLKGE [CDH5_Y82_N79T] | 0.915
119 | FVSLIYTNFEA [GSTP1_Y109_I105V_YF] | 1.13
120 | AKFPFYEKNKK [FOXL2_Y91] | 0.407
121 | FYRNVYHLASV [RBL1_Y796_K794N] | 0.611
122 | EWLRRHLENGK [HLA-A_Y195_Y195H] | 0.39
123 | SNMPSYSGHFT [GRIN2A_Y1224_T1223S] | 0.417
124 | AAETTYDKILK [GDNF_Y156] | 0.555
125 | STTSDYQWDVS [MTDH_Y364] | 0.741
126 | CTTIHYDYMCN [TP53_Y234_N235D] | 0.644
127 | LQTFRYHGHSM [PDHA1_Y289_YF] | 0.843
128 | TSGVVYKARNK [CDK2_Y19_Y15S] | 0.392
129 | ADKAAYLQSMN [MYH2_Y389_L393M] | 0.545
130 | SVTCTYSPALI [TP53_Y126_N131I] | 0.906
131 | VGTKRYMAPDV [ACVRL1_Y375_E379D] | 0.42
132 | YDCGMYSHLQG [LGR4_Y848] | 1.5
